The target of data set [1] is T1, MBP-WRKY48 (Arabidopsis thaliana (Col-0), UniProt Q9FGZ4 1-399). The data set can be described thus: EMSA; unphosphorylated; EMSA: 5x binding buffer (4% glycerol, 1 mM MgCl2, 0.5 mM EDTA, 0.5 mM DTT, 10 mM Tris-HCl pH 7.5), 1 ug poly-dIdC, BSA, 2.5 ug protein, ~20,000 cpm probe, room. The conditions noted are these: protein: recombinant; tags: MBP (pMAL-C2); label: 32P 5' end label.

For data set [2], the target named is T1, MBP-WRKY48. The data set can be described thus: competition; unlabeled competitor vs labeled W-boxes; binding largely reduced; EMSA: 5x binding buffer (4% glycerol, 1 mM MgCl2, 0.5 mM EDTA, 0.5 mM DTT, 10 mM Tris-HCl pH 7.5), 1 ug poly-dIdC, BSA, 2.5 ug protein, ~20,000 cpm probe, room. The note with it: protein: recombinant; tags: MBP (pMAL-C2); label: none.

Where a chain is given by its changes, count along the chain named.

T1 sequence (Q9FGZ4 whole entry): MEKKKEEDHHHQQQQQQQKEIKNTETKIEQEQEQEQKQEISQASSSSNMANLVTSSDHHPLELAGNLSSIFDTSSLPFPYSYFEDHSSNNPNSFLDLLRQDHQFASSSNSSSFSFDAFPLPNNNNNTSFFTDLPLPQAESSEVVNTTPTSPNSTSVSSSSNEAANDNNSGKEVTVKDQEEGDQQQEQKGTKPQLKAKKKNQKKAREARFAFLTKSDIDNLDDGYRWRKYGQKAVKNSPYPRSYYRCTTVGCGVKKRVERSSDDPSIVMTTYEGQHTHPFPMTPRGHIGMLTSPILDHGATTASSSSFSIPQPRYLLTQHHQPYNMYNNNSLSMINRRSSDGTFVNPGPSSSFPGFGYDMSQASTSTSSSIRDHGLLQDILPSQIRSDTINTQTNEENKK

B1: W-boxes probe (four W-boxes of WRKY46 promoter) (dsDNA)
DNA 1: CTGTCAATTCTTTGACCCCAGTTGACGAATGTCAATT
DNA 2: AATTGACATTCGTCAACTGGGGTCAAAGAATTGACAG
For the molecule B1, the binding result in data set [1] is given as “binds”.

B2: mW-boxes probe (mutated W-boxes) (dsDNA)
DNA 1: B1 DNA 1 with G3T, C16A, C26A, G31T
DNA 2: B1 DNA 2 with C7A, G12T, G22T, C35A
As to B2, the binding result in data set [1] is “no binding”.

B3: unlabeled W-boxes oligonucleotide (specific competitor) (dsDNA)
DNA 1: B1 DNA 1
DNA 2: B1 DNA 2
As to B3, in data set [2], the binding result was “binds”.

Source of the values: publication PMC3561149, “Bifurcation of Arabidopsis NLR Immune Signaling via Ca2+-Dependent Protein Kinases”.
